The record followed here is patent US20200164038A1, “MODIFIED NUCLEOSIDE, NUCLEOTIDE, AND NUCLEIC ACID COMPOSITIONS” (ModernaTX, Inc., priority 2011, published 2020).

For series [1], the system named is Human primary foreskin fibroblasts (BJ fibroblasts). In words: Innate immune response in BJ fibroblasts, repeat transfection (IFN-beta, IL-6). The series is classed as cell-based. The conditions noted are these: daily transfection, Day 1.
The test system of the next series is Female BALB/C mice. In words: In vivo detection of innate immune response: human G-CSF and mouse IFN-alpha in serum. Particulars: Protein: Cytokine Ratio.
Series [2] in a line: Stability of modified RNA on storage (gel electrophoresis). The series is classed as physicochemical. As for the experimental part: Stability experiments were conducted to obtain a better understanding of storage conditions to retain the integrity of modified RNA. […] 40° C. 37° C. 25° C. 4° C. or −20° C. After the mRNA had been stored for 0 hours, 2 hours, 6 hours, 24 hours, 48 hours, 5 days and 14 days, the mRNA was analyzed by gel electrophoresis using a Bio-Rad EXPERION™ system. The modified, unmodified and lipoplexed G-CSF mRNA was also stored in RNASTABLE® (Biomatrica, Inc. San Diego, Calif.) at 40° C. or water at −80° C. or 40° C. for 35 days before being analyzed by gel electrophoresis.
mRNA samples stored at 4° C. 25° C. and 37° C. were stored in 1×TE buffer or the formulation buffer (150 mM sodium chloride, 2 mM calcium chloride, 2 mM phosphate, 0.5 mM EDTA at a pH of 6.5). The mRNA stored at 4° C. was stable to at least 60 days in both the TE and formulation buffer. At 25° C. the mRNA in formulation buffer was stable out to 14 days and the TE buffer was stable out to at least 6 days. Storage of mRNA in the formulation buffer at 37° C. was stable to 6 days compared to the TE buffer which was stable only until 4 days.

The test system of another series is mice. In words: Saline formulation: human protein in mouse serum 13 hours after injection. The series is classed as in vivo. Particulars: G-CSF group, 100 ug. The method, then:
The mice were bled at 13 hours after the injection to determine the concentration of the human polypeptide in serum in pg/mL. (G-CSF groups measured human G-CSF in mouse serum and EPO groups measured human EPO in mouse serum).

Procedure for Female BALB/C mice: Blood is collected at 8 hours after dosing and using ELISA the protein levels of G-CSF and interferon-alpha (IFN-alpha) is determined by ELISA and are shown in Table 81.

B1: G-CSF Gen 2: G-CSF mRNA SEQ ID NO 6, Cap1, fully modified with 5-methylcytosine and N1-methylpseudouridine (nucleic acid, listed as Homo sapiens)
chain: GGGAAAUAAGAGAGAAAAGAAGAGUAAGAAGAAAUAUAAGAGCCACCAUGGCCGGUCCCGCGACCCAAAGCCCCAUGAAACUUAUGGCCCUGCAGUUGCUGCUUUGGCACUCGGCCCUCUGGACAGUCCAAGAAGCGACUCCUCUCGGACCUGCCUCAUCGUUGCCGCAGUCAUUCCUUUUGAAGUGUCUGGAGCAGGUGCGAAAGAUUCAGGGCGAUGGAGCCGCACUCCAAGAGAAGCUCUGCGCGACAUACAAACUUUGCCAUCCCGAGGAGCUCGUACUGCUCGGGCACAGCUUGGGGAUUCCCUGGGCUCCUCUCUCGUCCUGUCCGUCGCAGGCUUUGCAGUUGGCAGGGUGCCUUUCCCAGCUCCACUCCGGUUUGUUCUUGUAUCAGGGACUGCUGCAAGCCCUUGAGGGAAUCUCGCCAGAAUUGGGCCCGACGCUGGACACGUUGCAGCUCGACGUGGCGGAUUUCGCAACAACCAUCUGGCAGCAGAUGGAGGAACUGGGGAUGGCACCCGCGCUGCAGCCCACGCAGGGGGCAAUGCCGGCCUUUGCGUCCGCGUUUCAGCGCAGGGCGGGUGGAGUCCUCGUAGCGAGCCACCUUCAAUCAUUUUUGGAAGUCUCGUACCGGGUGCUGAGACAUCUUGCGCAGCCGUGAAGCGCUGCCUUCUGCGGGGCUUGCCUUCUGGCCAUGCCCUUCUUCUCUCCCUUGCACCUGUACCUCUUGGUCUUUGAAUAAAGCCUGAGUAGGAAG
modifications: Cap1; 5-methylcytosine, N1-methylpseudouridine
For B1, the IFNbeta in series [1] came to 3 pg/mL. Further, in the series on Female BALB/C mice, the “PC Ratio” value was determined as 748.

B2: G-CSF Gen 1: G-CSF mRNA SEQ ID NO 6, Cap1, fully modified with 5-methylcytosine and pseudouridine (nucleic acid, listed as Homo sapiens)
chain: GGGAAAUAAGAGAGAAAAGAAGAGUAAGAAGAAAUAUAAGAGCCACCAUGGCCGGUCCCGCGACCCAAAGCCCCAUGAAACUUAUGGCCCUGCAGUUGCUGCUUUGGCACUCGGCCCUCUGGACAGUCCAAGAAGCGACUCCUCUCGGACCUGCCUCAUCGUUGCCGCAGUCAUUCCUUUUGAAGUGUCUGGAGCAGGUGCGAAAGAUUCAGGGCGAUGGAGCCGCACUCCAAGAGAAGCUCUGCGCGACAUACAAACUUUGCCAUCCCGAGGAGCUCGUACUGCUCGGGCACAGCUUGGGGAUUCCCUGGGCUCCUCUCUCGUCCUGUCCGUCGCAGGCUUUGCAGUUGGCAGGGUGCCUUUCCCAGCUCCACUCCGGUUUGUUCUUGUAUCAGGGACUGCUGCAAGCCCUUGAGGGAAUCUCGCCAGAAUUGGGCCCGACGCUGGACACGUUGCAGCUCGACGUGGCGGAUUUCGCAACAACCAUCUGGCAGCAGAUGGAGGAACUGGGGAUGGCACCCGCGCUGCAGCCCACGCAGGGGGCAAUGCCGGCCUUUGCGUCCGCGUUUCAGCGCAGGGCGGGUGGAGUCCUCGUAGCGAGCCACCUUCAAUCAUUUUUGGAAGUCUCGUACCGGGUGCUGAGACAUCUUGCGCAGCCGUGAAGCGCUGCCUUCUGCGGGGCUUGCCUUCUGGCCAUGCCCUUCUUCUCUCCCUUGCACCUGUACCUCUUGGUCUUUGAAUAAAGCCUGAGUAGGAAG
modifications: Cap1; 5-methylcytosine, pseudouridine
For B2, the “stable out to” value in series [2] (stored at 25° C., with or without lipoplex) is 120 h; in series [2] (stored at 37° C.), 24 h; in series [2] (stored at 50° C.) it was 6 h. Moreover, in the series with mice, the “Average Protein Product, human G-CSF” value is 45 pg/mL, serum.
